Laboratory results as given in patent US20120156203A1.

Biological target: human IL13 (human) (UniProt P35225)
Assay: cell-based or functional assay

human IL13 (human), sequence (P35225 other isoform, or with tags, fused parts or gaps limits assumed): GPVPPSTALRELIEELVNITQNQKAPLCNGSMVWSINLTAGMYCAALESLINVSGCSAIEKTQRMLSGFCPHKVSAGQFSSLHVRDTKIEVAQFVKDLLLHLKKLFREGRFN

concentration for complete inhibition of IL13-suppressed CD14 expression on human monocytes (0.813 nM IL13): > 80 nM
Substance: anti-IL13 MAb JES10-5A2 (BD Biosciences-Pharmingen) (antibody)
